Patent US20130071374

Tested on: (His)6PemI

**Q.** For PemK(His)6, which “cleavage of mazG mRNA (native PAGE of digestion products)” value is on record?
**A.** the addition of PemI inhibited the cleavage of mazG mRNA in a dose-dependent manner
